# Target: T1, ybbR-CENP-B-His6 (full length, JF549-labelled for smTIRF) (UniProt P07199)
# T1 sequence: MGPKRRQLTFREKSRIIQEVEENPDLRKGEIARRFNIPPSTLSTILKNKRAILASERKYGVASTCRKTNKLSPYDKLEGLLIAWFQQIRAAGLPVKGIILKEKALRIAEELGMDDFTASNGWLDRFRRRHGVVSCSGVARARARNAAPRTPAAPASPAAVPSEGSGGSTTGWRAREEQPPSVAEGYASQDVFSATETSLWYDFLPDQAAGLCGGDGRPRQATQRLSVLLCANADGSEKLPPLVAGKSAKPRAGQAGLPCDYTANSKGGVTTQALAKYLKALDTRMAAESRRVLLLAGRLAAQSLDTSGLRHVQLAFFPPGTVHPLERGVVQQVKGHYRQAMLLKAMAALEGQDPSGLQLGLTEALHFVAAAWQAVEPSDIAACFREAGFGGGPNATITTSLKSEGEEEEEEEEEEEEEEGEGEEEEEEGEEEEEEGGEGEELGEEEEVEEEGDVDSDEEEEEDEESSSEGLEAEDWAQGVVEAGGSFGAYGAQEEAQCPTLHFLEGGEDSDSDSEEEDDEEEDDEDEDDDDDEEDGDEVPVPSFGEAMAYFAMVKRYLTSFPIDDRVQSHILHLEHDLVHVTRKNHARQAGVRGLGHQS
# Experiment: single-molecule colocalization (smTIRF)
# Conditions: smTIRF: about 5 nM CENP-B, 150 mM salt, EMSA: 10 mM Tris pH 7.5, 130 mM KCl, 3.2% glucose, 30 min at room temperature
substance,measurement,setting,value
CENP-A 12x601 chromatin fiber DA3BB (1 B-Box at N6),"binding signal (s (tau off,2))","150 mM KCl, tau_off,1 4.9 s (67%), A2 33%, amino-C6-dT, 5% PAGE in 0.25x …",51.4
GATCGGTCTCATAGCCTGGAGAATCCCGGTGCCGAGGCCGCTCAATTGGTCGTAGACAGCTCTAGCACCGCTTAAACGCACGTACGCGCTGTCCCCCGCGTTTTAACCGCCAAGGGGATTACTCCCTAGTCTCCAGGCACGTGTCAGATATATACATCCTGTCACACTGTGGATC (double strand) [H3 1x601 mononucleosome (no B-Box)],"binding signal (s (tau off,2))","tau_off,1 3.4 s (51%), A2 49%, amino-C6-dT on reverse strand, 5% PAGE in 0.25x TBE",15.2
GATCGGTCTCATAGCCTTCGTTGGAAACGGGAGAATCCCGGTGCCGAGGCCGCTCAATTGGTCGTAGACAGCTCTAGCACCGCTTAAACGCACGTACGCGCTGTCCCCCGCGTTTTAACCGCCAAGGGGATTACTCCCTAGTCTCCAGGCACGTGTCAGATATATACATCCTGTCACACTGTGGATC (double strand) [CENP-A 1x601 BB mononucleosome],"binding signal (s (tau off,2))","tau_off,1 6.8 s (51%), A2 49%, amino-C6-dT on reverse strand (smTIRF), 5% PAGE in 0.25x TBE",50.2
GATCGGTCTCATAGCCTTCGTTGGAAACGGGAGAATCCCGGTGCCGAGGCCGCTCAATTGGTCGTAGACAGCTCTAGCACCGCTTAAACGCACGTACGCGCTGTCCCCCGCGTTTTAACCGCCAAGGGGATTACTCCCTAGTCTCCAGGCACGTGTCAGATATATACATCCTGTCACACTGTGGATC (double strand) [H3 1x601 BB mononucleosome],"binding signal (s (tau off,2))","tau_off,1 6.87 s (66%), A2 34%, amino-C6-dT on reverse strand, 5% PAGE in 0.25x TBE",48.3
H3 12x601 chromatin fiber DA3BB (1 B-Box at N6),"binding signal (s (tau off,2))","150 mM KCl, tau_off,1 3.6 s (47%), A2 52%, amino-C6-dT, 5% PAGE in 0.25x …",17.6

# — paper PMC10716449
